Reference: publication PMC8716928 (2021)

B1: GvpM wild type, entire protein, with CGFP fused at the C-terminus [Halobacterium salinarum] / GvpL with NGFP fused at the N-terminus [Halobacterium salinarum] (parent complex)
chain 1: MEPTKDETHAIVEFVDVLLRDGAVIQADVIVTVADIPLIGISLRAAIAGMTTMTEYGLFEEWDAAHRQQSEAFTTSPTADRRED
chain 2: MTDHRPSPEEEQTTANEERTVSNGRYLYCVVDTTSSESATLSTTGVDDNPVYVVEADGVGAVVHDCETVYETEDLEQVKRWLVTHQQVVDAASDAFGTPLPMRFDTVLEGGDASIERWLEDHYEGFRDELASFAGVWEYRINLLWDSAPFEETIADRDDRLRELRQRQQQSGAGKKFLLEKQSDQRLQELKRERRTELADQLKEAITPVVNDLTEQDTNTPLQDEHSSIEKEQIVRFAVLADEDDETALGDRLDTIVEHEGVEIRFTGPWPPYTFAPDIGK
B2: Fragment M1–25 of GvpM with NGFP fused at the C-terminus [Halobacterium salinarum] / GvpL with CGFP fused at the C-terminus [Halobacterium salinarum] (parent complex)
chain 1: MEPTKDETHAIVEFVDVLLRDGAVI
chain 2: B1 chain 2
B3: GvpJ wild type with CGFP fused at the C-terminus [Halobacterium salinarum] / GvpL with NGFP fused at the N-terminus [Halobacterium salinarum] (parent complex)
chain 1: MSDPKPTRSQGDLAEMLEMLLDKGVVVNADIAVSVGDTELLGIELRAAIASFETAAEYGLEFPTGTDMERVESAANISPDQSDPASETQSETESTNPLSDDSTPTASTSAEETK
chain 2: B1 chain 2

Variants of: B1
Test: split-GFP; Hfx. volcanii transformants; parent: 7.8; read off a plot

Variant	response
chain 1 MEPTKDETHAIVEFVDVLLRDGAVIQADVIVTVADIPLIGISLRAEIAGMTTMTEYGLFEEWDAAHRQQSEAFTTSPTADRRED	~5.6
chain 1 MEPTKDETHAIVEFVDVLLRDGAVIQADVIVTVADIPLIGISLREAIAGMTTMTEYGLFEEWDAAHRQQSEAFTTSPTADRRED	~18
chain 1 MEPTKDETHAIVEFVDVLLRDGDVIQADVIVTVADIPLIGISLRAAIAGMTTMTEYGLFEEWDAAHRQQSEAFTTSPTADRRED	~9.7
chain 1 MEPTKDETHAIVEFVDVLLRDDAVIQADVIVTVADIPLIGISLRAAIAGMTTMTEYGLFEEWDAAHRQQSEAFTTSPTADRRED	~9.5

Continued, values first:

response	Variant
~7.1	chain 1 MEPTKDETHAIVEFVDVLLRDGAVIQADVIVTVADIPLIGISLRAAAAGMTTMTEYGLFEEWDAAHRQQSEAFTTSPTADRRED
~6.4	chain 1 MEPTKDETHAIVEFEDVLLRDGAVIQADVIVTVADIPLIGISLRAAIAGMTTMTEYGLFEEWDAAHRQQSEAFTTSPTADRRED

Variants of: B2
Test: split-GFP; Hfx. volcanii transformants; parent: 65; read off a plot

Variant	response
chain 1 MEPTKDETHAIVEFVAVLLRDGAVI	~46
chain 1 MEPTKDETHAIVEFVDVLLRDAAVI	~86
chain 1 MEPTKDETHAIVAFVDVLLRDGAVI	~61
chain 1 MEPTKDETHAIVEAVDVLLRDGAVI	~57
chain 1 MEPTKDETHAIVEFVDVLLRAGAVI	~67
chain 1 MEPTKDETHAIVEFVDVLLRDGDVI	~94
chain 1 MEPTKDETHDIVEFVDVLLRDGAVI	~58
chain 1 MAPTKDETHAIVEFVDVLLRDGAVI	~67
chain 1 MEPTKDKTHAIVEFVDVLLRDGAVI	~80

Continued, values first:

response	Variant
~110	chain 1 MEPTKDEAHAIVEFVDVLLRDGAVI
~70	chain 1 MEPAKDETHAIVEFVDVLLRDGAVI
~74	chain 1 MEPTKDETHAIVEFVDALLRDGAVI
~75	chain 1 MEPTKDETHAIVEFVDVALRDGAVI
~110	chain 1 MEPTKDETHADVEFVDVLLRDGAVI
~84	chain 1 MEPTKDETHAAVEFVDVLLRDGAVI
~54	chain 1 MEPTKDETHAIVEFVDVLLADGAVI
~100	chain 1 MEPTKDETHAIVEFADVLLRDGAVI
~84	chain 1 MEATKDETHAIVEFVDVLLRDGAVI
~58	chain 1 MEPTKDETHAIYEFVDVLLRDGAVI
~74	chain 1 MEPTKDETHAIVEFVDVLLRDGAAI
~81	chain 1 MEPTKDETHAIVEFVDVLARDGAVI
~62	chain 1 MEPTKDETAAIVEFVDVLLRDGAVI

Variants of: B3
Test: split-GFP; Hfx. volcanii transformants; parent: 13; read off a plot

Variant	response
chain 1 MSDPKPTRSQGDLAEMLDMLLDKGVVVNADIAVSVGDTELLGIELRAAIASFETAAEYGLEFPTGTDMERVESAANISPDQSDPASETQSETESTNPLSDDSTPTASTSAEETK	~14
chain 1 MSDPKPTRSQGDLAEMLAMLLDKGVVVNADIAVSVGDTELLGIELRAAIASFETAAEYGLEFPTGTDMERVESAANISPDQSDPASETQSETESTNPLSDDSTPTASTSAEETK	~9.5
chain 1 MSDPKPTRSQGDLAEMLRMLLDKGVVVNADIAVSVGDTELLGIELRAAIASFETAAEYGLEFPTGTDMERVESAANISPDQSDPASETQSETESTNPLSDDSTPTASTSAEETK	~9.2
chain 1 MSDPKPTRSQGDLAEMLQMLLDKGVVVNADIAVSVGDTELLGIELRAAIASFETAAEYGLEFPTGTDMERVESAANISPDQSDPASETQSETESTNPLSDDSTPTASTSAEETK	~9
chain 1 MSDPKPTRSQGDLAEMLEMLLNKGVVVNADIAVSVGDTELLGIELRAAIASFETAAEYGLEFPTGTDMERVESAANISPDQSDPASETQSETESTNPLSDDSTPTASTSAEETK	~14
chain 1 MSDPKPTRSQGDLAEMLEMLLDKGVVVNADIAVSVGDTELLGIELRAAIASFETAAEYGLEFPTGTDMARVESAANISPDQSDPASETQSETESTNPLSDDSTPTASTSAEETK	~14
chain 1 MSDPKPTRSQGDLAEMLEMLLDKGVVVNADIAVSVGDTELLGIELRAAIDSFETAAEYGLEFPTGTDMERVESAANISPDQSDPASETQSETESTNPLSDDSTPTASTSAEETK	~17
chain 1 MSDPKPTRSQGDLAAMLEMLLDKGVVVNADIAVSVGDTELLGIELRAAIASFETAAEYGLEFPTGTDMERVESAANISPDQSDPASETQSETESTNPLSDDSTPTASTSAEETK	~9.5
chain 1 MSDPKPTRSQGDLAEMLEMLLDKAVVVNADIAVSVGDTELLGIELRAAIASFETAAEYGLEFPTGTDMERVESAANISPDQSDPASETQSETESTNPLSDDSTPTASTSAEETK	~7.2
chain 1 MSDPKPTRSQGDLAEMLEMLLDKGVVVNADIAVSVGDTELLGIELRDAIASFETAAEYGLEFPTGTDMERVESAANISPDQSDPASETQSETESTNPLSDDSTPTASTSAEETK	~22
chain 1 MSDPKPTRSQGDLAEMLEMLLDKGVVVNDDIAVSVGDTELLGIELRAAIASFETAAEYGLEFPTGTDMERVESAANISPDQSDPASETQSETESTNPLSDDSTPTASTSAEETK	~25

Now from value to variant:

response	Variant
~14	chain 1 MSDPKPTRSQGDLAEMLEMLLDAGVVVNADIAVSVGDTELLGIELRAAIASFETAAEYGLEFPTGTDMERVESAANISPDQSDPASETQSETESTNPLSDDSTPTASTSAEETK
~14	chain 1 MSDPKPTRSQGDLAEMLEMLLDRGVVVNADIAVSVGDTELLGIELRAAIASFETAAEYGLEFPTGTDMERVESAANISPDQSDPASETQSETESTNPLSDDSTPTASTSAEETK
~17	chain 1 MSDPKPTRSQGDLAEMLEMLLDKGVVVNADIADSVGDTELLGIELRAAIASFETAAEYGLEFPTGTDMERVESAANISPDQSDPASETQSETESTNPLSDDSTPTASTSAEETK
~18	chain 1 MSDPKPTRSQGDLAEMLEMLLDKGVVVNADIAASVGDTELLGIELRAAIASFETAAEYGLEFPTGTDMERVESAANISPDQSDPASETQSETESTNPLSDDSTPTASTSAEETK
~17	chain 1 MSDPKPTRSQGDLAEMLEMLLDKGVVVNADIAVSVGDTELLGIELRAAIAAFETAAEYGLEFPTGTDMERVESAANISPDQSDPASETQSETESTNPLSDDSTPTASTSAEETK
~14	chain 1 MSDPKPTRSQGDLAEMAEMLLDKGVVVNADIAVSVGDTELLGIELRAAIASFETAAEYGLEFPTGTDMERVESAANISPDQSDPASETQSETESTNPLSDDSTPTASTSAEETK
~14	chain 1 MSDPKPTRSQGDLAEMLEMILDKGVVVNADIAVSVGDTELLGIELRAAIASFETAAEYGLEFPTGTDMERVESAANISPDQSDPASETQSETESTNPLSDDSTPTASTSAEETK
~7	chain 1 MSDPKPTRSQGDLAEMLEELLDKGVVVNADIAVSVGDTELLGIELRAAIASFETAAEYGLEFPTGTDMERVESAANISPDQSDPASETQSETESTNPLSDDSTPTASTSAEETK
~9.3	chain 1 MSDPKPTRSQGDLAEALEMLLDKGVVVNADIAVSVGDTELLGIELRAAIASFETAAEYGLEFPTGTDMERVESAANISPDQSDPASETQSETESTNPLSDDSTPTASTSAEETK
~18	chain 1 MSDPKPTRSQGDLAEMLEMLLDKGVVVNADIAVSVGDTELLGIELRAAAASFETAAEYGLEFPTGTDMERVESAANISPDQSDPASETQSETESTNPLSDDSTPTASTSAEETK
~9	chain 1 MSDPKPTRSQGDLAEMLEMLADKGVVVNADIAVSVGDTELLGIELRAAIASFETAAEYGLEFPTGTDMERVESAANISPDQSDPASETQSETESTNPLSDDSTPTASTSAEETK
~7.8	chain 1 MSDPKPTRSQGDLAEMLEMLLDKGVVVNADIAVSVGDTELLGIELRAAIASFETAAEEGLEFPTGTDMERVESAANISPDQSDPASETQSETESTNPLSDDSTPTASTSAEETK
